# Results taken from PMC6093710, “The Peptidisc, a simple method for stabilizing membrane proteins in detergent-free solution” (eLife, 2018).
# No end group written: not given here.
# B1: Peptide NSPr (reversed nanodisc scaffold peptide, peptidisc scaffold) (peptide)
# peptide: FAEKFKEAVKDYFAKFWDPAAEKLKEAVKDYFAKLWD
# notes: also called NSP (used loosely in some legends and methods); source: synthetic peptide; bought: A+ peptide Co. Ltd. and Genscript (purity >80%)
# B2: FhuA reconstituted in peptidisc (FhuA-NSPr) (complex)
# chain: AVEPKEDTITVTAAPAPQESAWGPAATIAARQSATGTKTDTPIQKVPQSISVVTAEEMALHQPKSVKEALSYTPGVSVGTRGASNTYDHLIIRGFAAEGQSQNNYLNGLKLQGNFYNDAVIDPYMLERAEIMRGPVSVLYGKSSPGGLLNMVSKRPTTEPLKEVQFKAGTDSLFQTGFDFSDSLDDDGVYSYRLTGLARSANAQQKGSEEQRYAIAPAFTWRPDDKTNFTFLSYFQNEPETGYYGWLPKEGTVEPLPNGKRLPTDFNEGAKNNTYSRNEKMVGYSFDHEFNDTFTVRQNLRFAENKTSQNSVYGYGVCSDPANAYSKQCAALAPADKGHYLARKYVVDDEKLQNFSVDTQLQSKFATGDIDHTLLTGVDFMRMRNDINAWFGYDDSVPLLNLYNPVNTDFDFNAKDPANSGPYRILNKQKQTGVYVQDQAQWDKVLVTLGGRYDWADQESLNRVAGTTDKRDDKQFTWRGGVNYLFDNGVTPYFSYSESFEPSSQVGKDGNIFAPSKGKQYEVGVKYVPEDRPIVVTGAVYNLTKTNNLMADPEGSFFSVEGGEIRARGVEIEAKAALSASVNVVGSYTYTDAEYTTDTTYKGNTPAQVPKHMASLWADYTFFDGPLSGLTLGTGGRYTGSSYGDPANSFKVGSYTVVDALVRYDLARVGMAGSNVALHVNNLFDREYVASCFNTYGCFWGAERQVVATATFRF
# peptide: B1 peptide
# notes: also called FhuA-peptidisc; FhuA peptidisc; copies: 1 + 10
# B3: Peptide NSPrbio (NSPr labelled with a biotin group) (peptide)
# peptide: B1 peptide
# modifications: also: biotin group, position not given here
# notes: source: synthetic peptide; bought: KareBay
# What was measured:
# Settings in all cases: both partners purified
# [1] = biological target: Photosynthetic bacterial reaction center (BRC) from Rhodobacter sphaeroides, His-tagged (Rhodobacter sphaeroides, UniProt P0C0Y8 1-282; P0C0Y9 1-308; P0C0Y7 1-260); test: SDS-PAGE densitometry of gel-filtered peptidiscs; peptidiscs made on-column, one more gel filtration to remove free NSPr; 15% SDS-PAGE, Coomassie fluorescence of the NSPr band against a standard curve of NSPr; triplicate gels
# [2] = biological target: T1, MalFGK2 ABC transporter (maltose transporter), His-tagged (UniProt P02916 1-514; P68183 1-296; P68187 1-371); test: as above
# T1 construct: also called MalGFK2
# T1 sequence (P02916 whole entry, chain 1 of 3): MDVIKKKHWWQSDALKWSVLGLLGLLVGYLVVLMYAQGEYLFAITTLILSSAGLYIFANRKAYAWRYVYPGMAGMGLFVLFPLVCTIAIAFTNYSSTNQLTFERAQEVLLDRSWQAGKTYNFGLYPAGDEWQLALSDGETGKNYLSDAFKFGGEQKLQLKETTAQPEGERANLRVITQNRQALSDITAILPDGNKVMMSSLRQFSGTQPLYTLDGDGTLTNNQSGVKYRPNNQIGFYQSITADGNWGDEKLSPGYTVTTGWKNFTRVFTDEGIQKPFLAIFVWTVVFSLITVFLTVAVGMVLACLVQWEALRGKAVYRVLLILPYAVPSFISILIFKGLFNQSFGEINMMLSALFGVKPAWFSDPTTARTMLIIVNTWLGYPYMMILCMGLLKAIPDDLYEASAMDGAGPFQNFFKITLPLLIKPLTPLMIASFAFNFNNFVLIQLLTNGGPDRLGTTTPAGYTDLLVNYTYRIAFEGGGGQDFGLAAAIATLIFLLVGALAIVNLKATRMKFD
# T1 sequence (P68183 whole entry, chain 2 of 3): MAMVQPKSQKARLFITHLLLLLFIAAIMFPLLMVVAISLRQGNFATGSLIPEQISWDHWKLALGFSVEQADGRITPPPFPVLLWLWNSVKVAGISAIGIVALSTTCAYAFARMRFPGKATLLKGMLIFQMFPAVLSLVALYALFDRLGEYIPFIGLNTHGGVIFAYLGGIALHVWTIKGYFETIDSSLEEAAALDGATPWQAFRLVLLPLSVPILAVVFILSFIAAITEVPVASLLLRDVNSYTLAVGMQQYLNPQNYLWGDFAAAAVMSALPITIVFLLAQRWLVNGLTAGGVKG
# T1 sequence (P68187 whole entry, chain 3 of 3): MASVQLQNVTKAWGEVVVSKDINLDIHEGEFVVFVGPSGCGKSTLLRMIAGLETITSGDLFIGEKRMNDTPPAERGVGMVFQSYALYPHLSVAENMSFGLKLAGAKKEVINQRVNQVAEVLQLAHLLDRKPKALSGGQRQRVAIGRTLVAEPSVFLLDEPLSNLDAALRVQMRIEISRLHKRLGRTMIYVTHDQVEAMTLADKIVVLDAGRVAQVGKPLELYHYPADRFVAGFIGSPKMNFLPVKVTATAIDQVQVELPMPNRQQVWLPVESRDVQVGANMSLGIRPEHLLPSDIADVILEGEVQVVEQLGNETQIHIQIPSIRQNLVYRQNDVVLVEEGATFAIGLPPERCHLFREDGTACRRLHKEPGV
# Colicin M, His-tagged = biological target: T2, Colicin M, His-tagged (UniProt P05820 1-271); test: native gel or EMSA; about 2 µg FhuA in peptidisc incubated with TonB23-329 (2 µg) or ColM (5 µg), with or without ferricrocin, 5 min at room temperature; CN-PAGE, Coomassie; free TonB and ColM do not migrate
# T2 construct: colicin M; Construct as in Mills et al., 2014; also called ColM; source: E. coli BW25113, plasmid pMLD189, purified
# T2 sequence: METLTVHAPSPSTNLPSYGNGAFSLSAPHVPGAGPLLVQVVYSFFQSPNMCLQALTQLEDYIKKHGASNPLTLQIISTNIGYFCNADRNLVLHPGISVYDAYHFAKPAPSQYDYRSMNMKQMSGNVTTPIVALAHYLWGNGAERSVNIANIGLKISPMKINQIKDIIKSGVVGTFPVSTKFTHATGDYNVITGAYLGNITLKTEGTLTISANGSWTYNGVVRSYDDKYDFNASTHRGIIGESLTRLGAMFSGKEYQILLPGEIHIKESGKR
# [3] = biological target: T3, FhuA receptor, His-tagged (UniProt P06971 34-747); test: streptavidin blot quantification of biotinylated peptide in gel-filtered peptidiscs; FhuA reconstituted with NSPrbio; western blot with streptavidin-Alexa 680, against a standard curve
# T3 construct: also called FhuA transporter
# T3 sequence (looked up): B2 chain
binder,measurement,setting,value
B1,stoichiometry N,[1],9 NSPr/disc
same,stoichiometry N,[2],10 NSPr/disc
B2,binding result,"Colicin M, His-tagged",binds
B3,stoichiometry N,[3],10 NSPr/disc
